Results published in PMC6855462.

Molecular target: FL H1#5070 (full-length HA of H1 A/Brisbane/59/2007, C-terminally modified with a sortase A LPXTG recognition sequence, biotinylated HA probe) (influenza A virus H1 A/Brisbane/59/2007)
Assay: SEC-MALS; Superdex 200 10-300 GL column, after sortase-mediated biotinylation; trimeric fractions collected; stored in 20mM Tris, 150mM NaCl, pH7.8

Substance “FL H1#5070 (full-length HA of H1 A/Brisbane/59/2007, C-terminally modified with a sortase A LPXTG recognition sequence, biotinylated HA probe) (natural protein)” has a stoichiometry N of 3.
